Test results published in patent US20250325622A1, “Autoimmune Disease Modulation Protocol” (priority 2024, published 2025).

Tested on: lupus anticoagulants
Test: PTT-LA Screen, lupus patient case study
Type: in vivo, human
Settings: coinciding with the first IV infusion, before the protocol; reference range <=40 sec
Protocol: On Jan. 5, 2023, the invention was administered to a person who was previously diagnosed in July 2019 with the autoimmune disease Lupus. This diagnosis was validated through a complete ANA Screen blood test panel conducted in July and subsequently in August of 2019 for a second confirmation. The patient was on standard therapies and medications typically prescribed for Lupus until December 2022, during which their symptoms progressively deteriorated. Of note, the patient voluntarily ceased all standard treatments for Lupus and other related auto-immune diseases one month prior to commencing the invention, under the supervision of their treating rheumatologist of the Arthritis & Rheumatic Disease Specialties center.
PTT-LA Screen: Tests for the presence of lupus anticoagulants, which are antibodies that can interfere with blood clotting and are commonly found in lupus patients.

## Inflectra: intravenous (IV) infusion treatment, a monoclonal antibody used to treat a range of inflammatory autoimmune diseases
  PTT-LA levels: significant spike
